From the supplement of paper PMC10567573

B1: NEK8 (parent)
chain: YTFGSNQHGQLGTNTRRGSRAPCK

Variants of: B1
Assay: protein stability index of a GFP-peptide fusion (GPS, HEK-293T) (PSI 1-6); higher = more stable
Settings: c terminus: a fixed tail appended
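Note: lentivirally expressed fusions sorted by FACS into six bins by GFP to DsRed ratio, PSI derived from sequencing read proportions per bin multiplied by bin number.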

Protein stability index of substitutions, site by site:
G9: H 4.16 | W 2.16 | K 4.12 | C 3.48 | A 3.39 | E 3.98 | S 4.15 | T 3.82 | D 4.11 | L 3.19 | M 3.19 | N 3.98 | Y 2.23 | Q 3.94 | I 3.05 | F 2.1 | V 2.78 | R 3.94 | P 3.38
N14: R 3.88 | Q 3.69 | H 4.07 | T 2.98 | P 3.77 | K 3.88 | S 3.88 | Y 3.63 | M 3.44 | F 3.71 | L 3.51 | G 3.49 | V 2.06 | A 3.38 | I 2.73 | C 2.29 | E 3.69 | D 4.35 | W 3.21
T15: R 3.98 | H 4.05 | V 4.17 | E 4.17 | F 3.56 | D 3.85 | K 3.94 | W 3.49 | Y 3.67 | N 3.82 | S 4.28 | P 3.6 | A 3.9 | G 3.77 | M 4.09 | C 3.56 | L 3.7 | Q 4.25 | I 4.14
R16: Q 3.97 | G 4.24 | A 3.81 | K 3.67 | C 3.36 | N 4.02 | F 2.57 | D 4.05 | P 3.94 | H 4.25 | M 3.63 | S 3.85 | E 3.63 | L 3.82 | I 3.56
G12: D 4.68 | Q 3.93 | F 3.09 | T 4.32 | N 4.18 | P 4.43 | M 3.84 | H 4.37 | C 3.71 | E 4.19 | I 3.79 | A 4.36 | S 3.97 | L 4.15 | V 4.11 | R 4.11 | K 3.98 | W 2.73 | Y 3.83
H8: S 3.77 | G 3.61 | C 3.94 | F 3.23 | W 2.36 | Q 3.92 | L 3.37 | V 4.01 | I 3.48 | D 4.15 | Y 3.36 | N 3.99 | K 4 | P 3.97 | E 4.47 | T 3.87 | R 3.92 | M 3.75 | A 3.98
Q10: F 3.33 | R 3.82 | W 1.52 | I 3.47 | M 3.58 | H 3.89 | P 4 | D 4.45 | V 3.31 | G 4.08 | N 3.83 | L 3.36 | T 4.32 | E 4.33 | Y 3.52 | S 3.58 | K 3.41 | C 3.36 | A 4.21
L11: S 4.94 | I 3.93 | T 4.43 | V 4.1 | A 4.38 | N 4.3 | R 4.65 | Y 3.95 | F 3.76 | D 4.49 | Q 4.49 | C 4.02 | E 4.53 | P 4.22 | K 3.56 | H 4.23 | G 4.53 | M 4.01 | W 3.22
T13: M 3.72 | A 4.44 | P 4.45 | K 3.79 | Q 4.35 | V 3.67 | I 3.15 | H 4.35 | C 3.13 | L 3.58 | S 4.3 | G 4.43 | Y 3.62 | E 4.37 | F 3.31 | D 4.44 | N 4.06 | W 3.22 | R 4.11
